{"source": "paper PMC12333349", "about": "“Endogenous Aquaporin‑0 Lipid Binding in Ocular Lens Tissue via Native Mass Spectrometry” (Journal of the American Society for Mass Spectrometry, 2025)", "proteins": {"B1": {"name": "Aquaporin-0 (natural protein, bovine, UniProt P06624 1-263, looked up)", "chain": "MWELRSASFWRAICAEFFASLFYVFFGLGASLRWAPGPLHVLQVALAFGLALATLVQAVGHISGAHVNPAVTFAFLVGSQMSLLRAICYMVAQLLGAVAGAAVLYSVTPPAVRGNLALNTLHPGVSVGQATIVEIFLTLQFVLCIFATYDERRNGRLGSVALAVGFSLTLGHLFGMYYTGAGMNPARSFAPAILTRNFTNHWVYWVGPVIGAGLGSLLYDFLLFPRLKSVSERLSILKGSRPSESNGQPEVTGEPVELKTQAL", "notes": "Aquaporin-0 (AQP0), bovine lens; the most abundant species is full-length AQP0, tetramer average mass 112,898 Da; Lower-abundance singly and doubly phosphorylated tetramers were also detected; Samples were in 200 mM ammonium acetate with 2x CMC C8E4 (residual OG possible); also called AQP0; crude AQP0; source: endogenous, bovine lens cortex and nucleus: crude urea-washed membrane pellets …"}}, "biological_target": "the molecule itself", "assay": "native MS; crude bovine lens cortex or nucleus membrane preparation, solubilised in 1% OG, exchanged into 200 mM ammonium acetate, 2x CMC C8E4; static nanospray, Q Exactive UHMR; HCD at 200 V fragmented the tetramer mainly into monomers"}
{"protein": "B1", "values": [{"measurement": "stoichiometry N", "result": 4}]}
